Reference: patent US20240287172A1 (SCIRHOM, published 2024)
Positions count from the first letter of the chain named.

B1: antibody 48 (antibody, V domains shown)
VH: QVQLQQSGTELVRPGTSVKVSCKASGYAFTNYLIEWVKQRPGQGLEWIGVINPGSGFTKYNEKFKGKATLTADKSSSTVYMHLSSLTSEDSAVYFCARGLYRAMDYWGQGTSVTVSS
VL: DIQMTQSPASQSASLGESVTITCLASQTIATWLAWYQQKPGKSPQLLIYGATTLADGVPSRFSGGGSGTKFSFKISSLQAEDFVSYYCQQLYSTPYTFGGGTKLEIK
notes: mouse IgG, kappa light chain; also called clone #48; purified antibody 48
B2: antibody 50 (antibody, V domains shown)
VH: B1 VH with T9A, T16A, T30S, V79A, H82Q
VL: B1 VL with A30G, G50A, T52A, T53S, S85N, L91I
notes: mouse IgG, kappa light chain; also called clone #50; purified antibody 50

Assays:
hiR2-FL-S545F-T7 = biological target: T1, hiR2-FL-S545F-T7 (human, UniProt Q6PJF5 1-856); test: FACS, MEF-DKO cells, 3 µg/ml
T1 sequence: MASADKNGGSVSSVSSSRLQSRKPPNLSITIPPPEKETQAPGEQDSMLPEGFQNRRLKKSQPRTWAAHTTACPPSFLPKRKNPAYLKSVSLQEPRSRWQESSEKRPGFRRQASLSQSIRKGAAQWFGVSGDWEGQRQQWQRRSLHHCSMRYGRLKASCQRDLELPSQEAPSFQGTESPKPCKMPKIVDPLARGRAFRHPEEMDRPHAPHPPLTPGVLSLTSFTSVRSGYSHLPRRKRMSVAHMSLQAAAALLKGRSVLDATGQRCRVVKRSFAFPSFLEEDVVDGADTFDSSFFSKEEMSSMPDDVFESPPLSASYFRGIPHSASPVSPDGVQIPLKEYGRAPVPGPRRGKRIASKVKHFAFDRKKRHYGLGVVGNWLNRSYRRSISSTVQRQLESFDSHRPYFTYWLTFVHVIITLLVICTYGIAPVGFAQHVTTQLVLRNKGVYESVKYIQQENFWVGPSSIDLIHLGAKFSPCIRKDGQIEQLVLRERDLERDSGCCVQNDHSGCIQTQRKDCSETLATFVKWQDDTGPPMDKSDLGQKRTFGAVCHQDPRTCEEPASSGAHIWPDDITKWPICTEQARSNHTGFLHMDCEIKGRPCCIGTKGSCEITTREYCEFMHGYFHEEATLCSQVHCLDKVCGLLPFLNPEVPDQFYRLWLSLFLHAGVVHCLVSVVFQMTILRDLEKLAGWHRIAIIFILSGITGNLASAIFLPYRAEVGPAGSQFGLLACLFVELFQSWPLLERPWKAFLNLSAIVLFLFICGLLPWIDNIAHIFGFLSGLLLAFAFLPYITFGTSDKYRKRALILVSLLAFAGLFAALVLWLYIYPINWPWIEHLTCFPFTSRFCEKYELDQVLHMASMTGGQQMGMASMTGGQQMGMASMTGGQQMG

hiR2-FL-L438S-T7 = biological target: T2, hiR2-FL-L438S-T7 (human, UniProt Q6PJF5 1-856); test: FACS, MEF-DKO cells, 3 µg/ml
T2 sequence: T1 sequence with L438S, F545S

Binder	loss of binding vs wild type (hiR2-FL-S545F-T7) [%]	loss of binding vs wild type (hiR2-FL-L438S-T7) [%]
B1	≥ 30	–
B2	–	≥ 30
